# Assay results from US20160228520A1.
# Biological target: PR-3 receptor (proteinase 3) on TNF-primed human peripheral blood neutrophils (human) (UniProt P24158)
# Test: cell-based or functional assay
# Chain of UniProt P24158 (P24158 28-248): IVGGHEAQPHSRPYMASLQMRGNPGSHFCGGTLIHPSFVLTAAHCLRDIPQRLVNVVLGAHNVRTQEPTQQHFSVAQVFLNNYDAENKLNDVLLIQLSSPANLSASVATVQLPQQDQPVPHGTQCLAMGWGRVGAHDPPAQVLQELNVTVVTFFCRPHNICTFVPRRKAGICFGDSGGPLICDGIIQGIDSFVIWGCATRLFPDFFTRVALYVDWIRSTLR
substance,measurement,value
"α1-antichymotrypsin (Athens Research & Technology, Cat. No. 16-16-012400) (from UniProt P01011 24-423)","% Release of calcein from HUVEC, α-PR3 mAbs added, negative control (0.25 mg/mL α1 antichymotrypsin by the text)",21.9%
same,"Mean fluorescence, HUVEC assay, α-PR3 mAbs added, negative control",4420
